Seven molecules from PMC4509860 (Nature chemical biology, 2015) can be followed below.

In general, Kd refers to the equilibrium constant for the complex coming apart. A low value points to a tighter complex.

Changes are numbered by the printed parent chain. Names may count otherwise. No end group written: not given here. *: point of attachment. FITC = O=C1OC2(c3ccc(O)cc3Oc3cc(O)ccc32)c2ccc(NC(=S)*)cc21; Ahx = NCCCCCC(=O)O

B1: StmE L73A (natural protein)
chain: MRPNVQIVSRDGDNFVLNLRNGEYWHLNSSAYTMLTRIADGETVDEVARDISAATSAPEQTVRDDLTEAVDQLRKAKLVEVRHS
B2: TbtG wild-type (enzyme)
chain: MSDALAAAIIGAGLLADELAAAFRPYGEVIRLDEVERAETEAHRLRALVMACDGWDTSIYRETRERCRRLGIPWLPVRTEHGIAVIGPLERPGEPGCAHCFELRRERARPDAAAYRAILNHHGPELAKRPSPYLDELAAATIAALGVRMIDQGSGCHVWYVRLNGLTVERHAFLPEPLCPECGSLPMDDRDSAVIVLRSQPKRAPDDYRTRDIVDELDALVADYVDGESGLIRPLVRDTQGGLVIAGAMLPLRFAGGSEPGVGRTRGYRTSEVTAILEALERWGGVEPGGKRTVIRAAFRDIAADALDPRTLGVHSPEAYAAEDFPFRPFTEDEETEWVWGYSFARRSPILVPETVAYYYVHRDRPRQERPFLYEISNGCALGSGMEEAILYGILEVVERDAFLMTWYGRLGVPRIDLDSAKNRMVPLQAAAISAETGYRIEVYDTTMEHGIPSVWALAIRGGEEPTAAPRPRMVCAAAAHLDPEQAVLSALSELGPLLADLLRRYPDEAERARRMVDDPGLVTTMHDHSTLYGADEAFGRLEFLTGTASTRDLAAMRESTVAFRSADLRDDLLEVIGRILAEGMDVIVVDQTTPEHRVHGFTCVKVLIPGMIPMTFGHRNRRLDGLTRPLVIPYRLGYRPAPLTPEALNPHPHPFP
B3: TbtF wild-type (natural protein)
chain: MIPARPVLTPGVRYAPTSDGVAFLTRDGIVSITGVSIHRWIDRIAPHLTGERSVAELTDGLAPERRAFVLRLLQALADRGLIIDAAGGREPRLERGTACALHVTETCGPYRESLPKLARSLADALTRAGLDVRLASASEPCDPERCHALVHLTAADEVGLAAAERLDRLSERWGVPIAHVVVWGGEIWRTEAGTVGEDGLPLAAGWRRLTALRPDTEERVPISPTAAVVVAGQVAADVRDRLTTATRAGRRPRLHVVEPARLTCRAHHFIPHFHTMPLTGDAPLAEELTEEEFSRRAAALMDDRTGVFTEIAEGDFGQLPLHVAVTTVADPVGLLGPAGDRPRVIGVGPDFATARYRTARAAIALYGLLAVDPRRLVDADGEPLAGPRTSAAELEDLLGRIRAGGLPAFVRAEDVRGGPPRLLPASSVFPFATARALLAGTVPTGTAVGYSEEGALRAALLDHCRERTLADLASRRVARLTPDTAPSDPVTARYLAFLRAIGLPFDVLDATGPLGVPVYVGVLDGRVVAAEAGASPGEAFRSVLEGILRGLQGIPAARSLPDTLPPVLPEAMAVPDGSPLSAEALAAALARAGLSVSVVRLDHDRRVHALIPHCVRVMVTGEESAHV
B4: TbtF R79A (natural protein)
chain: B3 chain with R79A
B5: FITC-labeled TbtA leader peptide (peptide)
chain: SRRGSMLNLSDLPMDVFEMADSGMEVESLTAGHGMPEVGA
modifications: not fully specified (N-terminus); also: FITC label

Targets include CurC wild-type (Corynebacterium urealyticum DSM 7109); HcaF F35A (Bacillus sp. Al Hakam); HcaF wild-type (Bacillus sp. Al Hakam); HcaF D21A (Bacillus sp. Al Hakam); TbtF L24A (Thermobispora bispora); TbtF F68A (Thermobispora bispora); TbtF Q74A (Thermobispora bispora); TbtF V30A (Thermobispora bispora); TbtF R71A (Thermobispora bispora); TbtF/G (Thermobispora bispora); TbtF D19A (Thermobispora bispora).

Holding throughout (test): fluorescence polarisation
(In fluorescence polarisation assays a small probe gives low polarisation when free and higher when bound to something large.)

The target of assay [1] is FITC-labeled StmA leader peptide (Streptomonospora alba, N-terminal FITC-Ahx (fluorescein isothiocyanate with an amino hexyl linker)).
In assay [2] the target is B5.

In the case of {FITC-Ahx}-GMSTLISKLPPAVSTDSSKIVSEVQAFEPT [FITC-labeled CurA leader], binding with CurC wild-type was put at a Kd of 7000 nM.

In turn, B1 yielded a Kd in assay [1] of more than 10000 nM.

The molecule B2 yielded a Kd in assay [2] of more than 10000 nM.

The molecule B3 returned a Kd in assay [2] of 66 nM.

As to B4, in assay [2], binding was put at a Kd of 79 nM.

Take SGSMNQFQQELQSLNLNDYQTGNVVYWDPQQSQYPYYYIQDDAR (not fully specified (N-terminus); also: FITC label) [FITC-labeled HcaA leader peptide]: the figures for the Kd with HcaF F35A, with HcaF wild-type and with HcaF D21A were 1700 nM, 89 nM and 130 nM, respectively.

As to B5, the dissociation constant Kd with TbtF L24A came to 65 nM; with TbtF F68A, 7700 nM; with TbtF Q74A it was 49 nM; in the assay with TbtF V30A, 210 nM; with TbtF R71A, 190 nM; in the assay with TbtF/G it was 66 nM. In the assay with TbtF D19A, binding was characterised by a dissociation constant (Kd) of 57 nM.
